Results taken from the supplement of paper PMC12042874.
± gives the uncertainty stated by the source.

Assay: amyloid nucleation score (Sup35N fusion, yeast selection) (log enrichment); library NNK2; higher = more nucleation; inactive = no reads after selection
Method in brief: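 Psi-negative yeast expressed Sup35N fused to peptides of 20 random codons. They were induced 24 hours with 100 μM copper sulfate, grown 7 days at 30°C without adenine and uracil, and their plasmid inserts from input and output were Illumina-sequenced. The nucleation score is the DiMSum log enrichment of output over input reads, centred on the mode score of non-aggregating sequences. Sequences with under 100 input reads were excluded.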

| Substance | amyloid nucleation score |
| --- | --- |
| YISMSMLGCLRTLREVHRDR | 3.21 ± 0.11 |
| STYRSASMVQVGRLVHGNQW | 5.38 ± 0.063 |
| GILWRGVLVRYVCPVVSTSI | inactive |
| PRSSAVYIRTLRVSQKVDPM | 2.64 ± 0.11 |
| TNLYNDIGDRMFSSNWSTPV | -0.02 ± 1.1 |
| GMTVR | 0.011 ± 0.54 |
| LYETSMNDPMRVHHLRCEFI | -0.254 ± 0.56 |
| NNIGS | inactive |
| IRLAYASRNWCSSFGCGRMI | -0.571 ± 0.55 |
| CAFYDYGKALPRGNFRLSKM | -0.208 ± 1 |
| CFEMV | -0.886 ± 0.21 |
| SGRLNVSLLGVDSFYTELCA | -0.787 ± 0.54 |
| LDPTVPGVIANVPNRRLARS | 5.87 ± 0.061 |
| NSVMIDTDVKFAFFRSET | inactive |
| SHSYFSYTFQILLCEAVRGG | -0.124 ± 0.76 |
| MVNCDYGPLLS | inactive |
| ITNAYGLIPTNFLCYAFCVI | 7.958 ± 0.038 |
| IPYEKPHRYIVNWECVAGSM | 0.621 ± 0.43 |
| VIPFISIRLCAAVRVFVPQS | 5.04 ± 0.075 |
| GQLNLGCWSYRGSRFWTWLR | inactive |
| HSSCIVVEAFSQGVVHNLFV | -0.567 ± 1.1 |
| FPRSGYITHLDCATR | -0.589 ± 0.55 |
| FECVAFSAV | -0.272 ± 0.28 |
| VAMVVRGTLYPALCPTYWVS | 2.25 ± 0.11 |
| WGLSRNSNIGHRVLIVAGNL | -0.683 ± 0.35 |

| Substance | amyloid nucleation score |
| --- | --- |
| SAKSNGVQ | 1.16 ± 0.32 |
| DRRWHRALQN | 0.137 ± 0.37 |
| FCLVEVWRIYVVCWPWSVGR | 0.743 ± 0.47 |
| GVTSRYTDSVSCGYPDSMML | 0.594 ± 0.45 |
| CTSVGFTYHRDFWYMGFWSR | 0.919 ± 0.15 |
| AAVFMLQRLDFINRMASASF | 3.72 ± 0.055 |
| VRDDCARWK | 0.327 ± 0.45 |
| CMNGPFTLTRPTARGRIRC | 0.32 ± 0.51 |
| NSASLFFS | 0.27 ± 0.17 |
| LINMLGWVRFY | 0.623 ± 0.44 |
| RCGEVRYPCTDVYILGFRSV | -0.437 ± 0.63 |
| GNCCDDCP | 1.53 ± 0.24 |
| YLLFNLHAVYLLVSGEPSPC | 0.405 ± 0.39 |
| LLEAQSISCYRRGVYLLGQL | 3.32 ± 0.067 |
| EPMKSFSHNCLTQIST | -0.557 ± 1.1 |
| MDLRWKSSGRKVNLNRLIQR | 4.647 ± 0.036 |
| IKIIPPLKLLCVLGWHSRGA | 1.35 ± 0.19 |
| RMGFWSLGSSSYNWYKTCVL | 0.043 ± 0.74 |
| ILIMGMILNSMYV | 0.516 ± 0.64 |
| YLKDPTFMGVNAFCVVLHFV | 6.01 ± 0.077 |
| ISLAINIAPLLLCTESTEWG | -0.133 ± 0.65 |
| GCDLYL | -0.256 ± 0.79 |
| SHEGGD | -0.856 ± 0.34 |
| HLNCISRGPMWLNDRMCQCP | 1.76 ± 0.12 |
| RVGVIFRKYWSFRYFSCKEN | -0.59 ± 1.1 |

| Substance | amyloid nucleation score |
| --- | --- |
| SVKWKTRDEKS | -0.711 ± 0.54 |
| SILDVCVSVT | -0.641 ± 0.55 |
| YVDGFYNGERWRLVLHVWDL | -0.598 ± 0.39 |
| GTWKVGQSYVVRVRLFFLLW | -0.369 ± 0.36 |
| PSLAKRGVSVCLAKANSRTI | -0.388 ± 1 |
| FSITCADFICYSLVGGERTP | 9.559 ± 0.066 |
| SFASRYFSNKGGLHSDMCAS | inactive |
| RSTERCNYTCVNWVVL | 7.748 ± 0.048 |
| HSGLSGTILGWLIFKVEGEE | 0.007 ± 0.42 |
| NVGSVKHGS | 0.531 ± 0.57 |
| VPFCGNNCSHCVRMSRLGRS | 0.719 ± 0.47 |
| NASYRCNM | inactive |
| AWKMVMRLDARPLARFWGDG | 5.34 ± 0.092 |
| LIYVATMWGNHSFYDLWDMQ | 0.112 ± 0.21 |
| WTCAAFFEMDDRQGIVEIFI | 0.644 ± 0.81 |
| MLDLIRLNDVICSQKFH | 0.48 ± 0.64 |
| NFSIL | -0.184 ± 1.1 |
| SCVMGYKEVAFL | -0.081 ± 0.34 |
| NDRNYLSGSGESELLPDCND | -0.434 ± 0.76 |
| MCDIVHY | -0.446 ± 0.79 |
| SSDTIQYYSKQNMVRRENC | 1.09 ± 0.52 |
| NCPSPLVWDCVLVVGDPVAC | 0.217 ± 0.25 |
| AVLLNA | 0.181 ± 0.34 |
| KHILGQTWHSHCWFHTFEGV | 2.26 ± 0.22 |
| AVIMALNIGWRRRDSGWDGV | 5.9 ± 0.083 |

| Substance | amyloid nucleation score |
| --- | --- |
| SWVRVTSPSIATFSATYCVL | 0.619 ± 0.81 |
| RLWNSGCLS | -0.916 ± 0.76 |
| IDSVIKTEARGQGVVARTRA | 1.33 ± 0.28 |
| YCVLMNS | -0.173 ± 0.41 |
| MLSEADNLRRSYRHRIYEFI | -0.874 ± 0.76 |
| SARRGCYWEAYCATCLKGWM | -1.03 ± 0.76 |
| NSRIL | inactive |
| NYGSTLVDWRVRFTRTRTWS | 0.503 ± 0.3 |
| IDGKARDYMAGDARMNRF | -1.45 ± 0.75 |
| ERVNKFLWGGFSERLRLMSQ | 0.51 ± 0.65 |
| VFIMRISCY | -0.424 ± 1.1 |
| DNKWILDRLIQHSLDHKVCR | -0.332 ± 0.63 |
| GKITVRDISYVRIWRDSLLY | 3.25 ± 0.1 |
| WRPKPKWFLGGYGWTGERRL | 0.418 ± 0.51 |
| CYYVDIVVSHQRTTSVMVGD | 0.698 ± 0.29 |
| TEEWFFCPRLTLKFLKEVHK | 4.94 ± 0.092 |
| MTSALGWQIYVYLSGAEYET | 0.31 ± 0.5 |
| NGTLRQYDRSDYINKIGDSN | -1.02 ± 0.38 |
| YPLGS | inactive |
| GTIYLFRWSFMWRFWMGTGL | -0.644 ± 0.54 |
| DYGWKLMVKVDWFLNGHQ | 4.39 ± 0.048 |
| WSVCARYSSGVCIAHCTQMK | 1.3 ± 0.25 |
| LLTCTYMQF | -0.124 ± 0.54 |
| PAFVYHFYQYNLTICYGYLG | -0.313 ± 0.5 |
| DGSHLSKTDVK | 0.113 ± 0.2 |

| Substance | amyloid nucleation score |
| --- | --- |
| IRQIIESWQFLYISVYAGLV | 0.186 ± 0.51 |
| HLWFEDAQFAIAKFKCGGKR | 6.16 ± 0.086 |
| SETLFEYS | -1.55 ± 0.55 |
| YGNPRIFIESMKYEVGIRVS | inactive |
| YCCPYYRKVLF | -0.559 ± 0.61 |
| NFLRML | -0.139 ± 0.21 |
| GEPSCATCITVCLVLLSTQM | 6.48 ± 0.081 |
| CCFGVQVEGT | -0.461 ± 0.79 |
| IFRSSTLIDLKDLGLTSH | 1.27 ± 0.096 |
| KENDVNLD | 1.5 ± 0.44 |
| SYYFQAFDYKFLSMVIDAYG | 7.085 ± 0.043 |
| IAMIVIQYTIRHCGSAEAVG | 2.34 ± 0.19 |
| LNFFNDR | inactive |
| WPKSAILIHCRVANGLCRFV | 6.586 ± 0.046 |
| WSMCFMPVRWSFSGTIYMHK | 0.472 ± 0.56 |
| LAGLALITIIDIFGDNGRMI | 3.2 ± 0.082 |
| GIKDI | -1.05 ± 0.79 |
| TFYSSWWSNSECYCS | 2.45 ± 0.1 |
| HMGLLFKWAYTYRIAWGKLR | -0.451 ± 0.79 |
| VDFLLYLVSSTFGRARKWVY | -0.425 ± 0.27 |
| DPSGYHVSFHSGDGGCEYC | 2.71 ± 0.085 |
| KVRDCDIMAPNIMVRSLNRS | 1.73 ± 0.16 |
| GQNTDVTCQRYERTM | 0.329 ± 0.62 |
| FTIFNKLCCVNYWVCILCYR | 5.144 ± 0.049 |
| RLSPPRNWLVRRRRIFNGLL | -0.757 ± 0.76 |

| Substance | amyloid nucleation score |
| --- | --- |
| MWLSPRVVVFCRLIFHLLVG | -0.567 ± 1.1 |
| RPMLVVSGGTSVLWDWAASD | 0.422 ± 0.64 |
| TFFIMEIFDFC | 1.8 ± 0.15 |
| FLDMSSRIMRARRPNCFFWC | -0.022 ± 0.31 |
| WYSNAVG | 1.57 ± 0.37 |
| MNSSQGTDAKRMLYHRCSET | -0.29 ± 0.56 |
| KVSWFVRIYMCEIRMRIGRS | 1.44 ± 0.33 |
| GWVKDDWDFTLMRPRFVGRG | -0.143 ± 0.76 |
| LLHIFLYGLSLILWWSHRTR | 7.06 ± 0.079 |
| CEVLKHSCTDSEMHAKADGV | -0.307 ± 0.23 |
| CMSNTMCAFVDGYNMHYLVD | inactive |
| SIAKFGWTIGRLGYIHIFIL | -1.16 ± 1.1 |
| FQDLDLVHRLHSVSVNLETE | 0.123 ± 1 |
| NTVWSFSSEWLFKQQLVCVR | 0.091 ± 0.53 |
| YHTSQLYWLLRCQSSFNSWG | 2.48 ± 0.079 |
| ASDRWMVYLIHVTSCYVLRV | -0.062 ± 0.41 |
| IFAAGYMYIFILVYLLTARG | -0.01 ± 1 |
| VCNSLCDSYF | -1.28 ± 0.56 |
| VLAARVTTYHLCVSEDVVTL | 2.9 ± 0.15 |
| YGMSRNIGAVVWHFCG | -0.368 ± 1 |
| RYCVDNW | 0.122 ± 0.41 |
| SYHAYRG | -0.064 ± 0.37 |
| ASRMPSGVRSFWAKPR | 0.321 ± 0.32 |
| FNNLFIRTADQEVTILDVTH | -0.031 ± 1 |
| IFRVLTGVIK | -0.277 ± 0.26 |

| Substance | amyloid nucleation score |
| --- | --- |
| DLCQSHLPCHMRRTSFRQLP | 0.606 ± 0.36 |
| FLSGVFIMRFHLNY | inactive |
| IINWPQLFKVASWTPSKTPP | -0.07 ± 0.76 |
| LMAKVRLRVGLGHWLDVWG | 2.93 ± 0.12 |
| VMYRRSACIEQDSYSNINCR | 0.025 ± 0.29 |
| YVLFFHGIMSCTPMQYQYMG | inactive |
| YFIVVFMLSVNKT | 0.06 ± 0.54 |
| NDTAATGANDETSDFYTEYC | 0.376 ± 0.66 |
| VVYWRWTTPDLRVKAHGLFF | 0.438 ± 0.5 |
| NYAQATRMFFNLMKSWLKMR | -1.02 ± 1.1 |
| TCRHRLHVSFVYDVLRQIVT | 0.043 ± 0.21 |
| SFDVWAALNENLPHISYFDQ | -0.14 ± 1.1 |
| PILYGSNGVRFV | -1.05 ± 1.1 |
| EPFSNEWWLMGVRPHLICRV | 0 ± 0.37 |
| ELTGYT | -0.388 ± 0.56 |
| TLWEGVFKRSWLGVSGSKVE | 0.401 ± 0.23 |
| RLSAHPVAAVLWG | 1.49 ± 0.36 |
| FFTVDRDFLYFPDFSKRVVM | -0.569 ± 0.79 |
| NLILYPRHDNYQSS | inactive |
| AYILAVVCPVVRKIGSQYDE | 1.87 ± 0.15 |
| SFSVLLADGQYRCYLLDSVL | -0.516 ± 0.48 |
